Key:
MS2 coat protein [1] = assay: apparent KD of MS2 coat protein; designed switch direction (-1 OFF switch, 1 ON switch): 1; higher = weaker reporter binding
How it was run: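 Designed RNA switches with common flanks were made on Illumina chips by stalled E. coli RNA polymerase. Titration with SNAP-549-labelled MS2 coat protein doubled from 0.7 or 1.5 nM up to 3 µM. Apparent KD is each design's median over clusters after curve-fitting normalised fluorescence.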

MS2 coat protein [2] = assay: apparent KD of MS2 coat protein; higher = weaker reporter binding; settings: Eterna round: R107
How it was run: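 Values are apparent KD, taken as the median for each design of fits to normalised binding curves from individual clusters. The designed RNA switches were transcribed on-chip from Illumina sequencing clusters and exposed to SNAP-549-labelled MS2 coat protein at twofold increasing amounts from 0.7 or 1.5 nM to 3 µM. Titration used 100 mM Tris-HCl pH 7.5, 80 mM KCl and 4 mM MgCl2, without or with constant ligand.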

[3] = input ligand: microRNA oligo, concentration not stated
[4] = Eterna round: R95, input ligand: FMN 200 uM
[5] = Eterna round: R95, input ligand: microRNA oligo, concentration not stated
[6] = Eterna round: R95, input ligand: none

Sequence | apparent KD of MS2 coat protein (MS2 coat protein [1]; input ligand: FMN 200 uM) | apparent KD of MS2 coat protein (MS2 coat protein [1]; [3]) | apparent KD of MS2 coat protein (MS2 coat protein [1]; input ligand: none) | further results
GUGGUCAGACAUGAGGAUCACCCAUGUGGAAUAAAUAACGGACAGGAUAUUUAAUAUAGGAUAUAGAAGAAGGGUUGAUUGGUG (Eterna round: R96, puzzle: Same State NG 3) | 104 nM | 77.9 nM | 90.8 nM | –
GCGGAAACUCACAUGAGGAUCACCCAUGUUCCGGAAACGGCACAGGAUAUCUGUCCGAAAAGGUCAGAGAAGGGUGAAAUCCGC [Fiskers NG3ss - 92] (Eterna round: R96, puzzle: Same State NG 3) | 282 nM | 9.95 nM | 54.8 nM | –
AACUAUCUAUCUCAGGAUAUCAUGUCAAAGACAUGAGGAUCACCCAUGUACCAGGAAACUGGUUAUGAGAAGGGAGAUAGAUAGU [Mat - Same State 2 - Mod - D41] (puzzle: Same State 2) | – | – | – | apparent KD of MS2 coat protein (MS2 coat protein [1]; [4]): 127 nM; apparent KD of MS2 coat protein (MS2 coat protein [1]; [5]): 263 nM; apparent KD of MS2 coat protein (MS2 coat protein [1]; [6]): 602 nM
AGCUUUUAAUCAGGAUAUGGUCACAUGAGGAUCACCCAUGUAACGAUGAUAUAAUGUGGUCAAGACUAGAAGGGAUUGCUAACA [SameState NG2 #67] (Eterna round: R96, puzzle: Same State NG 2) | 172 nM | 232 nM | 288 nM | –
GAGCCAGUCCGAGGAUAUUCAUAACAUGAGGAUCACCCAUGUAGGCUCAGAAAAGAAGAGCCUUGGGAGAAGGCGGACUGGCUC [Xeonanisa<<5] (Eterna round: R96, puzzle: Same State NG 2) | 9.88 nM | 30.2 nM | 43.8 nM | –
UGUUGUAUUACAGGAUAUCUAGUAUUUUAAUUUAGAGAAGGGUAUUCACAUGAGGAUCACCCAUGUAUAUACGAGGAAGUUGUG [JMF's solution 43] (Eterna round: R96, puzzle: Same State NG 1) | – | 38.6 nM | – | –
AGAUGUUAAUUAGGAUAUGGGCACAUGAGGAUCACCCAUGUAUUUUCGAUGCUAUGUGGAGACGUCUAGAAGGGAUGGCUAACA [SameState NG2 #87] (Eterna round: R96, puzzle: Same State NG 2) | 198 nM | 137 nM | 142 nM | –
GCUAGUAUUAUUGUCAACAUGAGGAUCACCCAUGUAUGUUGGCAGGAUAUCGUUUGCAAAGCAAACGAGAAGGGCUAAACUAGC [Mat - Same State NG 3 - JL Mod - D10] (Eterna round: R96, puzzle: Same State NG 3) | 71.9 nM | 105 nM | 185 nM | –
CCGUGGUAACAUGAGGAUCACCCAUGUACAAGCUUUUUGCUCGUUGGAUCCGGCGCGCCCAUUAUGGGCGCGCCGGA [Nishu_Seq2] (puzzle: Sensor for hsa-mir-208a version 2) | – | – | – | apparent KD of MS2 coat protein (MS2 coat protein [1]; [4]): 26.2 nM; apparent KD of MS2 coat protein (MS2 coat protein [1]; [5]): 16 nM; apparent KD of MS2 coat protein (MS2 coat protein [1]; [6]): 25.6 nM
GAGCUCGUGUGAGGAUAUGCCGCCGUUUCGGCUGCAGAAGGUGCUACGUUACAUGAGGAUCACCCAUGUCUCUGUUGUUUCGUC [salish99_SSNG1_r04_961] (Eterna round: R96, puzzle: Same State NG 1) | 25.1 nM | 24.2 nM | 30 nM | –
AAUUCACGAGCACAGGAUAUGCUUGCCAACACAUGAGGAUCACCCAUGUCGGGCUACUAAUAAGAGCAGAAGGGUGACUCAUGAU [Esticece] (puzzle: Same State 2) | – | – | – | apparent KD of MS2 coat protein (MS2 coat protein [1]; [4]): 36.6 nM; apparent KD of MS2 coat protein (MS2 coat protein [1]; [5]): 342 nM; apparent KD of MS2 coat protein (MS2 coat protein [1]; [6]): 58.2 nM
AUUUUUAAUGCAGGAUAUGAUUAACAUGAGGAUCACCCAUGUGGUGUUGUGAGUAAGGAGAGUGAUCAGAAGGGCAUUUUUUUG [JMF's solution 90] (Eterna round: R96, puzzle: Same State NG 2) | 753 nM | 287 nM | 458 nM | –
AGCUAGUACCGAGGAUAUACAUACAUGAGGAUCACCCAUGUAUACAUGAAUAAAUGAGACUACAUGUAGAAGGCGGUACUAGCA [Mat - Same State NG 2 - JL mod - D47] (Eterna round: R96, puzzle: Same State NG 2) | – | 48.8 nM | – | –
AAGUGGUCCCAAGGAUAUGUCCAAAAGAAGGGCUGAGACAUGAGGAUCACCCAUGUCUCGGCGGUACAGAAGGUGGAGACAGGU [Solaena] (Eterna round: R96, puzzle: Same State NG 2) | 10.5 nM | 10 nM | 14 nM | –
CUCAAACAUGAGGAUCACCCAUGUGUUGUCGUGGGAGGAUAUCCCAGUUCGGUGGCGUCGGGAGAAGGCCUAUGUC [× ×•×ª×• ×ž×“×™× ×” × ×—×ª-16] (puzzle: Same State 1) | – | – | – | apparent KD of MS2 coat protein (MS2 coat protein [1]; [4]): 50.4 nM; apparent KD of MS2 coat protein (MS2 coat protein [1]; [5]): 100 nM; apparent KD of MS2 coat protein (MS2 coat protein [1]; [6]): 129 nM
AAAUAAAACACAGGAUAUGCAGCCAAUACGGCGGCAGAAGGGUGAGACAUGAGGAUCACCCAUGUACACGUCCCACAGACGUGC [Mabege] (Eterna round: R96, puzzle: Same State NG 1) | 426 nM | 89.9 nM | 119 nM | –
UUUGGGUGGCUGGAGGAUAUCCUGGUUGUUACAUGAGGAUCACCCAUGUGCCGCGCGGUUCGCGAGGAGAAGGCUGGCGGCCGUU (puzzle: Same State 2) | – | – | – | apparent KD of MS2 coat protein (MS2 coat protein [1]; [5]): 91.2 nM
GAGUGGCAGUUAGGAUAUAUAGUGAUAAUUACAAUAGAAGGAACAGACAUGAGGAUCACCCAUGUAGGACUAAUCCAGAGAGAG [Parity 38 - Jieux - Same State NG 1] (Eterna round: R96, puzzle: Same State NG 1) | 30.9 nM | 20.6 nM | 30.9 nM | –
GAAAAACAUGAGGAUCACCCAUGUGAGAAUAUGGGAGGAUAUUCAAAGACGAAAGUCAAAGAAGAAGGCCUAAAAG [Mat - Same State 1 - Eli mod - 37] (Eterna round: R96, puzzle: Same State 1) | 33.4 nM | 143 nM | 211 nM | –
UUUGGGUGGCUGGAGGAUAUUCGAGUGGUUACAUGAGGAUCACCCAUGUGUCGCGCGGUACGCGAGGAGAAGGCUGGCGGCCGUU (puzzle: Same State 2) | – | – | – | apparent KD of MS2 coat protein (MS2 coat protein [1]; [5]): 53.4 nM
GCCAUCGUAUGAGGAUAUGGCACCGUUUCGGUGCCAGAAGGCAUGUCAAUUGACAUGAGGAUCACCCAUGUAUUAUCGAUGGCA [JL Fiskers NG1ss - 33 mod 6] (Eterna round: R96, puzzle: Same State NG 1) | 99.8 nM | 485 nM | 925 nM | –
GCGAAAGCGGUAGGAUAUCUAGGAUAUGGGAAGAGCUAAGCUUGGAAGUCACUUCACCCAGAAGGAGAGAAGGACACCGAAAGG [pwkr ssNG2 2FMN + F9.3] (Eterna round: R96, puzzle: Same State NG 2) | 2990 nM | 302 nM | 390 nM | –
GGAGCCGGCCUAGGAUAUUUCAUAAAAUAACAUGAGGAUCACCCAUGUAGGCCAGAAGGCCUUGGGAAGAAGGAGGUCGGCUCC [Loop Effect - U28] (Eterna round: R96, puzzle: Same State NG 2) | 13.4 nM | 23.1 nM | 44.4 nM | –
GUGCUCGUGUGAGGAUAUGCUUCCGGUUCGGCUGCAGAAGGUACUAUUAUACAUGAGGAUCACCCAUGUCGCUUUUCUCCGGUG [salish99_SSNG1_r04_916] (Eterna round: R96, puzzle: Same State NG 1) | 28.3 nM | 17.6 nM | 25 nM | –
GGUAGGUUACUACCAGACAUGAGGAUCACCCAUGUAAGUGGGAAGGAUAUGGUACCGUUUCGGUACCAGAAGGUCCUAAAUGAG [JL SSNG3 1.46] (Eterna round: R96, puzzle: Same State NG 3) | 332 nM | 1650 nM | 1220 nM | –
AACCUAGGCAGAGGAUAUCUGGACGCGCGCACCAGAGAAGGCUGCGAGCCCUGAAUAUACAUGAGGAUCACCCAUGUCCCGCAC [Eternabot solution 15] (Eterna round: R96, puzzle: Same State NG 1) | 31.2 nM | 27.8 nM | 26.5 nM | –
UGCUUCAUGUAAGGAUAUGCAGCCGUUUCGGCUGCAGAAGGUACUAUAAUACAUGAGGAUCACCCAUGUCUCUCGCAUUGCGAG [salish99_SSng1_r04_301] (Eterna round: R96, puzzle: Same State NG 1) | – | 111 nM | – | –
UCUUGGUUUUUGCUCGUUUUUUGUGUUGAACAUGAGGAUCACCCAUGUAUUGUACGGUCCAGUUUAGUAAUGGUCCA [JMF 7] (puzzle: Sensor for hsa-mir-208a) | – | – | – | apparent KD of MS2 coat protein (MS2 coat protein [1]; [4]): 26.3 nM; apparent KD of MS2 coat protein (MS2 coat protein [1]; [5]): 16.3 nM; apparent KD of MS2 coat protein (MS2 coat protein [1]; [6]): 27.8 nM
ACGGAUCGGAAACGAUCCGCGGCGCGGGUGCGAGGACCGGUACGGCCGCCACUCGGGUAACAUGAGGAUCACCCAUGUCCGAUUU [ETA NP+V+V2 #12] | – | – | – | apparent KD of MS2 coat protein (MS2 coat protein [2]; input ligand: arginine 13.2 mM): 65.7 nM; apparent KD of MS2 coat protein (MS2 coat protein [2]; input ligand: theophylline 20 uM): 101 nM; apparent KD of MS2 coat protein (MS2 coat protein [2]; input ligand: theophylline 2 mM): 129 nM

From the supplement of paper PMC9170038
